Here are results for five molecules from patent US20240029824A1 (University of Washington, published 2024).

One test has as its target T1, DHT01-4arm-01 chain B.
T1 construct: Strep-tag II was added to the N-terminus of chain B of DHT01 arms
T1 chain: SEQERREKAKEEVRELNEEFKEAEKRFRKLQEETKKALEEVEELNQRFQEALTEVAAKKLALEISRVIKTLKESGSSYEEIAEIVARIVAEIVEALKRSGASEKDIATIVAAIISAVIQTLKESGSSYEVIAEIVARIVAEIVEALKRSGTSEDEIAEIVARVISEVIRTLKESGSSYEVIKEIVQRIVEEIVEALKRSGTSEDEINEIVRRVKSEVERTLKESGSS
The test can be described thus: co-expression, pull-downs, SEC, native MS, SAXS; chains of one ABC heterotrimer.

The next test deals with T2, DHT01-4arm-01 chain C.
T2 construct: also called DHT01-4arm-02 chain C; C2-DHT01-01 chain B
T2 chain: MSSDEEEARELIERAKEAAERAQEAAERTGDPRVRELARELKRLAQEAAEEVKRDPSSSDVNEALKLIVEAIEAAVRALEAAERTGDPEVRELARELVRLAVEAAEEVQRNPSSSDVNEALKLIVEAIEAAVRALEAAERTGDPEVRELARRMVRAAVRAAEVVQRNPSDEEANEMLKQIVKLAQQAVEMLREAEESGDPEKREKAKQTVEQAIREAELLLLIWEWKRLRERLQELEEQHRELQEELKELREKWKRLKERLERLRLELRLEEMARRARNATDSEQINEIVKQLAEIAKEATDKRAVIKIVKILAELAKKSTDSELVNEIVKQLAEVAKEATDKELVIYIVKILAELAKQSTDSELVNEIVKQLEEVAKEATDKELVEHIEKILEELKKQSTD
The test is described as above.

Test [1] has as its target T3, DHT01-4arm-02 chain B.
T3 construct: Strep-tag II was added to the N-terminus of chain B of DHT01 arms; also called C2-DHT01-04 chain B
T3 chain: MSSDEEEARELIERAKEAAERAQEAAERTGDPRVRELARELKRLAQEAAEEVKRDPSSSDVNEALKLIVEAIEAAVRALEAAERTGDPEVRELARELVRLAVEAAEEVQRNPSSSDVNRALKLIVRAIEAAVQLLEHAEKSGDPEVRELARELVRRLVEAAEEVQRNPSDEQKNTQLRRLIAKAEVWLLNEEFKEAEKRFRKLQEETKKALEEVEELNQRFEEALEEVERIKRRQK
Briefly: SEC and SDS-PAGE; chains of one ABC heterotrimer.

The target in test [2] is T3, DHT01-4arm-02 chain B. The test can be described thus: bicistronic expression, SAXS, negative stain EM; A2B2 ring.
Test [3] concerns the target T4, DHT03 chain C (SEQ ID NO: 59).
T4 chain: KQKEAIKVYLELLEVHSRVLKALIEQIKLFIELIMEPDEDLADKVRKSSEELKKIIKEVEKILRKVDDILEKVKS
Briefly: chains mixed and annealed, SEC, negative stain EM; A4B4C4 ring.

For the next test, the target named is T5, C4-DHT03-01 chain B.
T5 construct: four copies in the A4B4C4 ring; also called C4-DHT03-01-DHR82 chain B
T5 chain: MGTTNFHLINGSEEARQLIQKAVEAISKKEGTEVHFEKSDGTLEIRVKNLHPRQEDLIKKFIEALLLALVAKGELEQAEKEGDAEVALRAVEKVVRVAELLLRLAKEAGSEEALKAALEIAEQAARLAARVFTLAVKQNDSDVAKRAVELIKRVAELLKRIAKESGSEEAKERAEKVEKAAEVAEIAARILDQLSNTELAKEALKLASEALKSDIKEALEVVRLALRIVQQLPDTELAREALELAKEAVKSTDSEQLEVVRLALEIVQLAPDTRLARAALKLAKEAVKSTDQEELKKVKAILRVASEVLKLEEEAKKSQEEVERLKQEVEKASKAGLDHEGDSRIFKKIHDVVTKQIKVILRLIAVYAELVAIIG
The description is as above.

Test [4] has as its target T6, DHT03_3arm_A21/B21/C82 chain C.
T6 construct: also called chain C DHR82 fusion; chain C of C3-DHT03-01-DHR82 and C4-DHT03-01-DHR82
T6 chain: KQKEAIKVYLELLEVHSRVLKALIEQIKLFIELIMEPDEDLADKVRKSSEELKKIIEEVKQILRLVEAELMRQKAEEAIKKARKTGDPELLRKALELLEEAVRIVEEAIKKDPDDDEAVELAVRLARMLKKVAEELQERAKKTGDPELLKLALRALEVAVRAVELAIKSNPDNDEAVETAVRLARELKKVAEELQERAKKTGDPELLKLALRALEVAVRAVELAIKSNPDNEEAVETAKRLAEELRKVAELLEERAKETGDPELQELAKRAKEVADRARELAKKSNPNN
Briefly: three components purified separately, mixed equimolar, heat annealed, SEC, negative stain EM. The source says: As is evident from the images in FIGS. 4c and 4d, the cyclic structures retain one of the original heterotrimer helical hairpins in each corner; these short, outward facing protein chains provide fusion points for further elaboration of higher order symmetric assemblies. To evaluate the potential for building up larger nanostructures using the rings as hubs, and explore the modularity of the designed building blocks, we replaced the original outward facing chain C helical hairpin with the chain C DHR82 fusion (as it was the largest 4-repeat DHR) from FIG. 3d, row 8. This was done for two designs (C3-DHT03-01 and C4-DHT03-01), with chain C replaced by fusion C82 through expressing and purifying the three components separately, mixing them in equal molar quantities, and reconstituting using heat annealing.
An AKTA PURE FPLC system was used. Heterotrimer bases, arm extensions, coiled coil C2 rings, and all constructs mentioned in SI were passed through a Cytvia Superdex S200 Increase 10/300 GL column, while C3/C4 rings made from DHT03 were passed through a Cytvia Superdex S6 Increase 10/300 GL column. The mobile phase was TBS (25 mM Tris-HCl pH 8.0, 100 mM NaCl or 25 mM Tris-HCl pH 8.0, 150 mM NaCl). Samples ran at a flow rate of 0.75 ml/min and fractions were collected at 0.5 ml.

Another test concerns the target T7, C3-DHT03-01 chain B.
T7 construct: three copies in the A3B3C3 ring; also called C3-DHT03-01-DHR82 chain B
T7 chain: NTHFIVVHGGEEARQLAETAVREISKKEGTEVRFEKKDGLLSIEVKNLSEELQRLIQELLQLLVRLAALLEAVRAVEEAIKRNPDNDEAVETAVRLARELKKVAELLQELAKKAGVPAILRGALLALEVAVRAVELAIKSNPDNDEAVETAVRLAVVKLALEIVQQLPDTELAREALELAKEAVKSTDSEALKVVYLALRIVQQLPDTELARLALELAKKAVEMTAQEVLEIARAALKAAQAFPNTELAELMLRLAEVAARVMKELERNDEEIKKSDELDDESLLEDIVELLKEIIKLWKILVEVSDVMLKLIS
The test can be described thus: chains mixed and annealed, SEC, negative stain EM; A3B3C3 ring.

Test [5] deals with T4, DHT03 chain C (SEQ ID NO: 59). Described as above.
Another test concerns the target T8, C3-DHT03-02 chain B.
T8 construct: three copies in the A3B3C3 ring
T8 chain: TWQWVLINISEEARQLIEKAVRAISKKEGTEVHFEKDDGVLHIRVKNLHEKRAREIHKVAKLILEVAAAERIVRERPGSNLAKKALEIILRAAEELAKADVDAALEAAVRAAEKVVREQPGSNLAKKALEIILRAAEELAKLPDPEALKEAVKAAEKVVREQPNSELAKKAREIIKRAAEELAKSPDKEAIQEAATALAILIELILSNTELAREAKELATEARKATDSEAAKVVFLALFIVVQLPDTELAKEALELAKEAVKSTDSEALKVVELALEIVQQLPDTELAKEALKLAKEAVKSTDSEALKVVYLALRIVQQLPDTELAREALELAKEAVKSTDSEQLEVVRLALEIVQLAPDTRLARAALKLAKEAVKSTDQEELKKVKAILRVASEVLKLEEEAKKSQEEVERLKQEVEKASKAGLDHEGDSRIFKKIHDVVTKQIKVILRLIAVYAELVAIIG
The test is described as above.

B1: DHT01-4arm-01 chain A (designed binder)
chain: DEEEKLRESLEEQKKRVKEIEREHEEIREALKRLQQSVLRQAVRLAKLGDDSEMINRIVKDLAEQAKEATDKREVIKIVKALAELAKNSTDSELVNEIVKQLAEVAKEATDKELVIYIVKILAELAKQSTDSELVNEIVKQLEEVAKEATDKELVEHIEKILEELKKQSTD
notes: also called DHT01-4arm-02 chain A
In the case of B1, the binding result with DHT01-4arm-01 chain B, in the test with DHT01-4arm-01 chain C and with DHT01-4arm-02 chain B [1] was “binds” in each case.

B2: C2-DHT01-04 chain A (designed binder)
chain: DEEEKLRESLEEQKKRVKEIEREHEEIREALKRLQQSVLRQAVRLAKLGDDSEMINRIVKDLAEQAKEATDKREVIKIVKALAELAKNSTDRELINEIAKQLAEVAKEATDEELQRYIAKILIELAEQAIKEAERSLREGNPEKAREDVRLALELVRLLLEIAQALNLLEVLEEAARLAFEVARVAKEVGSPETARQARETAERLLEWAMKMIEEKAKKEKDRNDQSSDVNEAAKLIREAAEAAQRAREAASRTGDPEVKDLAWRMVEAALKAAAVVATNPSDEEANEMLKQIVKLAQQAVEMLREAEESGDPEKREKAKQTVEQAIREAELLLLIWEWKRLRERLQELEEQHRELQEELKELREKWKRLKERLERLRLELRLEEMARRARNATDSEQINEIVKQLAEIAKEATDKRAVIKIVKILAELAKKSTDSELVNEIVKQLAEVAKEATDKELVIYIVKILAELAKQSTDSELVNEIVKQLEEVAKEATDKELVEHIEKILEELKKQSTD
notes: two copies in the A2B2 ring
Take B2: the binding result with DHT01-4arm-02 chain B [2] is listed as “binds”.

B3: C4-DHT03-01 chain A (designed binder)
chain: MGNTHFIVVHGGEEARQLAETAVREISKKEGTEVRFEKKDGLLSIEVKNLSEELQRLIQELLQLLVRLAALLEAVRAVEEAIKRNPDNDEAVETAVRLARELKKVAELLQELAKKAGVPAILRGALLALLVAARAVALAALANSKNDEAREALKRLAEELKKVAKELKERAKKTKDSELERLALAAELMALAAEIVAQLANTELAREALELATEAIKASDDEALRVVKLALRIVQQLPDTELARLALELAKKAVEMTAQEVLEIARAALKAAQAFPNTELAELMLRLAEVAARVMKELERNDEEIKKSDELDDESLLEDIVELLKEIIKLWKILVEVSDVMLKLIS
notes: four copies in the A4B4C4 ring; also called C4-DHT03-01-DHR82 chain A
Take B3: the binding result (in test [3]; with C4-DHT03-01 chain B; in test [4]) was “binds” in each case.

B4: C3-DHT03-01 chain A (designed binder)
chain: TTNFHLINGSEEARQLIQKAVEAISKKEGTEVHFEKSDGTLEIRVKNLHPRQEDLIKKFIEALLLALVAKGELEQAEKEGDAEVALRAVEKVVRVAELLLRLAKEAGSEEALKAALEIAEQAARLAKRVLELAEKQGDAEVALKAVLLVVIVAALLVKIAKESGSEEAKERATRVAREASRLADRVEELARKQNNEDVTLAAKVLKLAADIIAQLMNTELAEEAAQLATEALKATDREQLEVVRLALEIVQLAPDTRLARAALKLAKEAVKSTDQEELKKVKAILRVASEVLKLEEEAKKSQEEVERLKQEVEKASKAGLDHEGDSRIFKKIHDVVTKQIKVILRLIAVYAELVAIIG
notes: three copies in the A3B3C3 ring; also called C3-DHT03-01-DHR82 chain A
As to B4, the binding result (with C3-DHT03-01 chain B; in test [5]; in test [4]) was “binds” in each case.

B5: C3-DHT03-02 chain A (designed binder)
chain: SSIFLLSNVDESARQLAEELVREISKKEGTEVRFEKDDGFLTIEVKNLSEERLREIARALQLIVDVANAERVVRERPGSNLAKKALEIILRAAEELAKLTLEASLKAAQIAAELVVREQPGSNLAEKAKTIILQARAAELAIRIEEQLKDTELAKEAKELATEAIKAQDKEALKVVELALKIVQQLPDTELAKEALKLAKEAVKSTDSEALKVVELALEIVQQLPDTELAKEALELAEEAVKSTDSEALKVVKLALEIVQQLPDTELAREALELAKEAVKSTDSEALKVVYLALRIVQQLPDTELARLALELAKKAVEMTAQEVLEIARAALKAAQAFPNTELAELMLRLAEVAARVMKELERNDEEIKKSDELDDESLLEDIVELLKEIIKLWKILVEVSDVMLKLIS
notes: three copies in the A3B3C3 ring
Regarding B5, the binding result (with C3-DHT03-02 chain B; in [5]) was “binds” throughout.
